How the values were obtained:
[1] = molecular target: T1, recombinant human PD-1 expressed on the surface of CHO cells (CHO-hPD1) (human, UniProt Q15116 25-288); test: flow cytometry, blocking of PD-L2-hFc binding to CHO-hPD1, mode 1 (ligand first)
T1 construct: whole, on cells; also called CHO-PD1; hPD1-transfected CHO cells
Protocol: (§1) The ability of the anti-PD-1 mouse monoclonal antibody to block the binding of the ligand to a PD-1 stably expressed on the surface of transfected CHO cells was analyzed by a flow cytometer.
(§2) The cells were centrifuged at 300 g for 5 minutes, washed once with the buffer, added with a PE-labeled goat anti-human IgG fluorescent antibody (Biolegend), and incubated at 4° C. for 30 minutes. The cells were centrifuged and washed once, then resuspended in PBS, and subsequently analyzed by a CytoFlex flow cytometer to detect the quantity of the ligand protein bound to the cells, and calculate the IC₅₀ value of the PD-1 antibody in blocking the binding.

[2] = molecular target: T2, human CTLA4-hFc (human, UniProt P16410 37-162, limits assumed); test: ELISA, antigen coated at 1 µg/mL
T2 construct: Commercial protein; also called CTLA-4 (ACRO); not shown: human Fc (hFc)
T2 sequence (P16410 37-162 limits assumed): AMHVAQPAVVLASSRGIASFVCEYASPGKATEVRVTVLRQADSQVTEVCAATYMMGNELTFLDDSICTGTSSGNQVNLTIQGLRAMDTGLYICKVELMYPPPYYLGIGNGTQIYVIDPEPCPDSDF
From the text: (§3) A horse radish peroxidase (HRP)-coupled anti-human IgG (F) was used as the secondary antibody. After developed with TMB and terminated, it was read for an OD450 value with a microplate reader.

[3] = molecular target: T3, human ICOS-hFc (human, UniProt Q9Y6W8 21-140); test: ELISA, antigen coated at 1 µg/mL
T3 construct: Commercial protein; also called ICOS (ACRO); not shown: human Fc (hFc)
T3 sequence (looked up): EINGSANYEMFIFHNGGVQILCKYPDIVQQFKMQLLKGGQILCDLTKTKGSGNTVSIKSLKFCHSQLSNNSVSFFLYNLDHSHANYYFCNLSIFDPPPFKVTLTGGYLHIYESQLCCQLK
From the text: as §3

[4] = molecular target: T4, human CD28-hFc (human, UniProt P10747 19-152); test: ELISA, antigen coated at 1 µg/mL
T4 construct: Commercial protein; also called CD28 (ACRO); not shown: human Fc (hFc)
From the text: as §3

[5] = molecular target: T5, PD1 naturally expressed by activated human lymphocytes (PHA-activated PBMC) (human, UniProt Q15116 25-288); test: flow cytometry on PHA-activated human PBMC
T5 construct: whole, on cells; Also used as the target for the mixed lymphocyte reaction (human T cells)
T5 sequence (Q15116 25-288): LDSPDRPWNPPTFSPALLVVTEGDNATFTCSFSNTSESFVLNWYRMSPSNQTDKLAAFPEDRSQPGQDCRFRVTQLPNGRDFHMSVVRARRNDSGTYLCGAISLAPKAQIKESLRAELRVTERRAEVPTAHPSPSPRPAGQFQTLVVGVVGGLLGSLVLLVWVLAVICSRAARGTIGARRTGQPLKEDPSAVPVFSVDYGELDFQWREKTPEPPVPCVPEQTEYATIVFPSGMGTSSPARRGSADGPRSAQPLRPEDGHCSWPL
Protocol: After being obtained from fresh human peripheral blood by gradient centrifugation of lymphatic separation medium, the PBMCs were adjusted to the density of 1×10⁶ cells/mL and inoculated into T75, and meanwhile added with PHA-L (Sigma) at a final concentration of 1 μg/mL to stimulate the proliferation of lymphocytes. After being allowed to stand in an incubator at 37° C. and 5% CO₂ for 3 days, the cell suspension was taken out and centrifuged. […] The cells were washed once with the buffer, and added with a PE-labeled goat anti-human IgG fluorescent antibody (Biolegend), and incubated at 4° C. for 30 minutes.

[6] = molecular target: T1, recombinant human PD-1 expressed on the …; test: flow cytometry, blocking of PD-L2-hFc binding to CHO-hPD1, mode 2 (antibody first)
Protocol: as §1, §2

[7] = molecular target: T1, recombinant human PD-1 expressed on the …; test: flow cytometry, blocking of PD-L1-hFc binding to CHO-hPD1, mode 2 (antibody first)
Protocol: as §1, §2

[8] = molecular target: T6, PD-1-his (ACRO) recombinant protein (UniProt Q15116 25-167); test: BLI (ForteBio Octet), PD-1-his loaded on sensor, antibody in solution
T6 construct: Commercial protein; not shown: his tag
T6 sequence (Q15116 25-167 limits assumed): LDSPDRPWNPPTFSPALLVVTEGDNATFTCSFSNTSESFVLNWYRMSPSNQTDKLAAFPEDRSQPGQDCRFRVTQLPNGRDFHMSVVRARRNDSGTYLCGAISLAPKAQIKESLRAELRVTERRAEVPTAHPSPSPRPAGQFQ
Protocol: Finally, analysis was conducted by utilizing a kinetic model.

[9] = molecular target: T2, human CTLA4-hFc; test: ELISA, antigen coated at 1 µg/mL, antibody 10 µg/mL
From the text: (§4) The anti-PD-1 mouse monoclonal antibody was allowed to bind with four different member proteins of CD28 family to verify the specificity of the antibody in binding to PD-1. […] A horse radish peroxidase (HRP)-coupled anti-mouse IgG(Sigma) was used as the secondary antibody. After developed with TMB and terminated, it was read for an OD450 value with a microplate reader.

[10] = molecular target: T3, human ICOS-hFc; test: as above
From the text: as §4

[11] = molecular target: T7, human PD-1-hFc (human, UniProt Q15116 25-167); test: as above
T7 construct: Commercial protein; also called PD-1 (ACRO); not shown: human Fc (hFc)
T7 sequence (Q15116 25-167 limits assumed): as above
From the text: as §4

[12] = molecular target: T4, human CD28-hFc; test: as above
From the text: as §4

[13] = molecular target: T8, monkey PD1 expressed on the surface of CHO cells (CHO-cynoPD1) (monkey); test: flow cytometry on CHO-cynoPD1 cells
T8 construct: whole, on cells
Protocol: (§5) In order to evaluate the binding of the anti-PD-1 mouse monoclonal antibody to the CHO-h PD1, 2×10⁵ CHO-hPD1 cells and an anti-PD-1 mouse monoclonal antibody diluted in concentration gradient (with an initial concentration of 10 μg/mL, and diluted in 3-fold gradient) were added into a 96-well plate, and incubated at 4° C. for 30 minutes. The cells were washed once with a buffer (PBS containing 3% BSA) and then added with a PE-labeled anti-mouse IgG (Fc) Ab (Biolegend) fluorescent secondary antibody, incubated at 4° C. for 30 minutes, then washed once with the buffer and subsequently resuspended in PBS. Thereafter, the cell suspension was subjected to flow cytometric analysis by CytoFlex (Beckman flow cytometer), and the quantity of the antibody bound to the cells was measured according to the mean fluorescence intensity (MFI) of the staining. The same method was used for evaluating the binding of the anti-PD-1 mouse monoclonal antibody to the CHO-cyno cells and the CHO-mousePD1 (sometimes abbreviated as “CHO-mPD1” in the application) cells.

[14] = molecular target: T9, mouse PD1 expressed on the surface of CHO cells (CHO-mousePD1) (mouse, UniProt Q02242 25-288); test: flow cytometry on CHO-mousePD1 cells
T9 construct: whole, on cells; also called CHO-mPD1
T9 sequence (looked up): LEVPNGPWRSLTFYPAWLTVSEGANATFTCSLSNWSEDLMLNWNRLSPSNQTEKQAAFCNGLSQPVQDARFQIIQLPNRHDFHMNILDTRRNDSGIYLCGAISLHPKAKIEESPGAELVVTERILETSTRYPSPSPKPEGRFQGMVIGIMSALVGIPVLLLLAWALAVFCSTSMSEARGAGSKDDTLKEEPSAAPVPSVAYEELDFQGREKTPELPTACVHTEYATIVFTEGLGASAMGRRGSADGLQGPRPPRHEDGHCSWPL
Protocol: as §5

[15] = molecular target: T1, recombinant human PD-1 expressed on the …; test: flow cytometry on CHO-hPD1 cells
Protocol: as §5

[16] = molecular target: T1, recombinant human PD-1 expressed on the …; test: flow cytometry, blocking of PD-L1-hFc binding to CHO-hPD1, mode 1 (ligand first)
Protocol: as §1, §2

T1 sequence (Q15116 25-288): as the sequence (Q15116 25-288) above

IC50 [1]: 4.61 nM
binding result [2]: no binding (tested: 10 µg/mL)
binding result [3]: no binding (tested: 10 µg/mL)
binding result [4]: no binding (tested: 10 µg/mL)
EC50 [5]: 0.109 nM
IC50 [6]: 3.73 nM
IC50 [7]: 1.55 nM
Kd [8]: 0.0435 nM
koff [8]: 3.18e-05 s⁻¹
kon [8]: 732000 M⁻¹ s⁻¹
OD450 [9]: 0.131 OD450
OD450 [10]: 0.062 OD450
OD450 [11]: 2.12 OD450
OD450 [12]: 0.0625 OD450
EC50 [13]: 0.463 nM
EC50 [15]: 0.739 nM
IC50 [16]: 2.57 nM
B1: anti-PD-1 mouse monoclonal antibody PD-1-112-C2 (antibody, V domains shown)
VH: QVQLQQPGAELVKPGASVKLSCKASGYTFTTYYMYWVKQRPGQGLEWIGGINPSNGGTNFNEKFKSKATLTVDKSSSTAYMQLSSLTSEDSAVYYCTRRDSNYDGGFDYWGQGTTLTVSS
VL: DIVLTQSPASLAVSLGQRATISCRASKSVSTSGYSYMHWYQQKPGQPPKLLIYLAYHLESGVPARFSGSGSGTDFTLNIHPVEEEDAATYYCQHSWELPITFGSGTKLEIKR
notes: Mouse monoclonal antibody from a hybridoma
binding result [14]: no binding (tested: initial concentration of 10 µg/mL)

From patent US20240287184A1 (GUANGDONG FAPON BIOPHARMA, published 2024)
